Measured values: the nanobody polyreactivity screen of Harvey et al. (2022)

Assay: yeast display, Sf9 membrane polyspecificity reagent, FACS + sequencing; frameworks hold sequencing errors
In short: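 Galactose-induced (36–48 hours) yeast carrying a synthetic nanobody display library were exposed to 10% biotinylated, detergent-solubilized Sf9 membrane reagent at 4 °C for 1 hour. FACS followed streptavidin microbead enrichment, using low and high (top ~1%) gates for expression (anti-HA) and reagent binding (streptavidin). Colony PCR, MiSeq 2 × 250 sequencing and CDR-length filtering followed. Labels for polyreactivity reflect the gate of origin.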

Row | Sequence | polyreactivity (PSR sort gate)
1 | QDQLVESGGGLVQAGGSLRLSCAASGRTFRKYAMGWYRPAPGKEREFVAAITSSGGSTYYADSVKGRYTISRDNAKNTVYLQMNSLKPEDTAVYYCAAARTSTGTYRYEYWGQGTQVTVSS | high polyreactivity
2 | QDQLVESGGGLVQAGGSLRLSCAASGRTFRYYAMGWYRQAPRKERELVAAISSGGSTNYADSVKARFTISRDNAKNTVYLQMNRLKPEDTGVYYCAVQAWYMTYSYPYSKGYYWGQGTQLTVSS | high polyreactivity
3 | QDQLVESGGGLVQAGGSLRLSCAASGRTFSINAMGWYRQAPGKERELVASISSRGTRTNYADSVKGRFTISRDNAKNTVYLQMNSLKPEDTGVYYCAADRYYPYYSAWREYEYWGQGTQVTVSS | high polyreactivity
4 | QDQLVESGGGLVQAGGSLRLSCAASGRTFYDNAMGWYRQAPGKERELVAAITWRGGGTYYADSVKGRFTISRDNAKNTVYLQMNSLKPEDTAVYYCAADSSGTGFYAYTDGEEKYSWGQGTQVTVSS | high polyreactivity
5 | QDQLVESGGGLVQAGGSLRLSCAASGRTLGKNAMGWYRQAPGTERELVAAISSSGGSTYYADSVKGRFTISRDNAKNTVYLQMNSLKPEDTAVYYCAAKYFRKYSQIGPDMYYWGQGTQVTVSS | high polyreactivity
6 | QDQLVESGGGLVQAGGSLRLSCAASGRTLYLYAMGWYRQAPGKERELVAGISWSGTSTYYADSVKGRFTISRYNAKNTVYLQMNSLKPEDTAVYYCAADSYPAYLGFVGFDYWGQGTQVTVSS | low polyreactivity
7 | QDQLVESGGGLVQAGGSLRLSCAASGSIFAGYVMGWYRQAPGKERELVASISSGTGTFYADSVKGRFTISRDNAKNTVYLQMNSLKPEDTAVYYCAAESYRTVQFIRSRWRYTYDYWGQGTQVTVSS | low polyreactivity
8 | QDQLVESGGGLVQAGGSLRLSCAASGSIFGAYARGWYRQAPGKERELVAAISGSGTSTYYADSVKGRFTISRDNAKNTVYLQMNSLKPEDTAVYYCAADGTYFYIYLGDRFDYWGQGTQVTVSS | low polyreactivity
9 | QDQLVESGGGLVQAGGSLRLSCAASGSIFNPYAMGWYRQAPGKERELVAAITSGGYTYADSVKGRFTISRDNAKNTVYLQMNSLKPEDTAVYYCAADRSYVYAGADMYYWGQGTQVTVSS | low polyreactivity
10 | QDQLVESGGGLVQAGGSLRLSCAASGSIFQYYAMGWYRQAPGKERELVAAISYSGDGTFYADSVKGRFTISRDNAKNSVYLQMNSLKPVDTAVYYCAASSTGYGGSTYYYWGQGTQVTVSS | low polyreactivity
11 | QDQLVESGGGLVQAGGSLRLSCAASGSIFRYVMGWYRQAPGNERELVAAISIRGGSTYYADSVKGRFTISRDNAKNTVFFQMHSLKPEDTAVYYCAADRYRLGVKYDYWGQGTQVTVSS | high polyreactivity
12 | QDQLVESGGGLVQAGGSLRLSCAASGSIFVQYAMGWYRQAPGKERELVATISSSGGSTYYADSVKGRFTISRDNAKNTVYLQMNCLKPEDTAVYYCAADWTLDPSYGYYADDYWGQGTQVTVSS | low polyreactivity
13 | QDQLVESGGGLVQAGGSLRLSCAASGSIFWLNAMGWYRQAPGKERELVAAITTVDSTYYADSVKGRFTISRDNAKNTVYLQMNSLKPEDTAVYYCAASGRQSRYDYWGQGTQVTVSS | low polyreactivity
14 | QDQLVESGGGLVQAGGSLRLSCAASGSIFWLYTMGWYRQAPGKERELVAAITGSGSSTYYADSVKGRFTISRDNAKNTVYLQMNSLKPEDTAVYYCAAYWSSARRRYDYWGQGTQVTVSS | high polyreactivity
15 | QDQLVESGGGLVQAGGSLRLSCAASGSIFYPYAMGWYRQATGKEREFVAGITTRGGSTYYADSVKGRFTISRDNAKNTVYLQMNSLKPVDTAVYYCNAGYYLTLDYWGQGTQVTVSS | high polyreactivity
16 | QDQLVESGGGLVQAGGSLRLSCAASGSIFYRYAMGWYRQARGKVREFVAGITYSSGTTYYADSVKGRFTISRDNAKNTVYLQMNSLKPEETAVYYCAAELRSSYYRRAMDYCGQGTQVTVSS | high polyreactivity
17 | QDQLVESGGGLVQAGGSLRLSCAASGSTFGYYAMGWYRQAPGKERELVAAITWNGGSTYADSVKGRFTISRDNAKNTVYLQMNSLKPEDTAVYYCAALVHRRVQYDYWGQGTQVTVSS | high polyreactivity
18 | QDQLVESGGGLVQAGGSLRLSCAASGSTFHLYAMGWYRQAPGKERELVAAITRRGSDTYYADSVKGRFTISRDNAKNTVYLQMNSLKPEDTAVYYCAARDRHPVWGQGTQVTVSS | low polyreactivity
19 | QDQLVESGGGLVQAGGSLRLSCAASGSTFPAYAMGWYRQAPGKERELVAAISVRRGRTYYADSVKGRFTSSRDNAKNTVYLQMNSLKPDDTAVYYCAAYLRPGGNYYWGQGTQVTVSS | high polyreactivity
20 | QDQLVESGGGLVQAGGSLRLSCAASGSTFPDYAAMGWYRPAPGTERELVAAISKRGGSTYYADSVKGRFTISRDNAKNTVYYQMNSLKPEDTAVYSCNVEYYILTAGRYARAYDYGGQGTQVTVSS | high polyreactivity
21 | QDQLVESGGGLVQAGGSLRLSCAASGSTFPRYAMGWSRQAPGKERELVAAISSSGRTYYADSVKGRFTISRDNEKNTVYLQMNSLKPEDTAVYYCNAYPVFRSYDYWGQGTQVTVSS | high polyreactivity
22 | QDQLVESGGGLVQAGGSLRLSCAASGSTFQTYAMGWYRQAPGKEREVVAAISFNGGSTYYADSVKGRFTISRDNAKNTVYLQMNSLKPEDTAVYSCAVEYTWASALYDGRHDYWGQGTQVTVSS | high polyreactivity

Row | Sequence | polyreactivity (PSR sort gate)
23 | QDQLVESGGGLVQAGGSLRLSCAASGSTFRRYDMGWYRQAPGKERELVAAISHRTGRTSYADSVKGRFTISRDNAKNTVYLQMNSLKTEDTAVYYCAADHTYYRQGYDYWGQGTQVTVSS | high polyreactivity
24 | QDQLVESGGGLVQAGGSLRLSCAASGSTFSWYAMGWYRQAPGKERELVAAINNRSGSTSYADSVKGRFTISRDNAKNTVYLQMNSLKPEDTAVYYCAAEGTDGLYDWEYDYWGQGTQVTVSS | high polyreactivity
25 | QDQLVESGGGLVQAGGSLRLSCAASGSTFSYNAMGWYRQAPGKERELVAAIRWSGGSTYADSVKGRFTISRDNAKNTVYLQMNSLNPEDTAVYYCAARNFGYPELRYYYWGQGTQVTVSS | high polyreactivity
26 | QDQLVESGGGLVQAGGSLRLSCAASGSTFTDYDMGWYRQAPGKERELVAAITSGGSTNYADSVKGRFTISRDNAKNTVYLQMNSLKPEDTAVYYCAAELRYYLYDVVYIVTYDYWGQGTQVTVSS | low polyreactivity
27 | QDQLVESGGGLVQAGGSLRLSCAASGSTFTKYAMGWYRQAPGKERELVAAIISYRVGSTYYADSVKGRFTISRDNAKINVYLVMKSLIPEDTAAFYCAAVWKPPGFSTMYYWGQGTEVTVSS | high polyreactivity
28 | QDQLVESGGGLVQAGGSLRLSCAASGSTFVDNAIGWYRQAPGKERELVAAISRGGSTHYADSVKGRFTISRDNAKNTVYLQMNSLKPEDTAVYYCAAVIDSREEYWGQGTQVTVSS | high polyreactivity
29 | QDQLVESGGGLVQAGGSLRLSCAASGSTFVGNAMGWYRQAPGKERELVAAISRTGGSTYYADSVKGRFTISRDNAKNTVYLQMNSLKPEDTAVYYCAARRYDIRYYYVTYRPPKMYYWGQGTQVTVSS | high polyreactivity
30 | QDQLVESGGGLVQAGGSLRLSCAASGSTFYTYAMGWYRQEPGKERELVAAISYRGGSSYYAVSVKGRFTISRDNAKYTVYLQMNSLKPEDTAVYYCAAKVSRAGDFWGQGTQVTVSS | low polyreactivity
31 | QDQLVESGGGLVQAGGSLRLSCAASGSTFYWYTMGWYRQAPGKESEMVATITSVGRTNYADSVKGRFTISRDNAKNTVYLQMNSLKPEDTAVYYCAASKARWARGGSKYYYWGQGTQVTVSS | high polyreactivity
32 | QDQLVESGGGLVQAGGSLRLSCAASGSTIDDYARGWYRQAPGKERELVAAITWTSTDTYADSVKGRFTISRDNAKNTVYLQMNCLKPEDTAVYYCATDFIWDTAVTGGPNDWEYDYWGQGTQVTVSS | low polyreactivity
33 | QDQLVESGGGLVQAGGSLRLSCAASGSTIRVKAMGWYRLAPGKERELVAGISKSGTSTYYADSVKGRFTISRDNAKNTVYLQMNSLKPEDTAAYYCATHLGRRTSGSRFGYWGQGTQVTVSS | high polyreactivity
34 | QDQLVESGGGLVQAGGSLRLSCAASGSTLARYGMGWYRQAPGKERELVAAISYSGGRTYYADSVKGRFTISRDNAKNTVYLQMNSLKPEDTAVYYCAARRVYVPRGPIEFYYWGQGTQVTVSS | high polyreactivity
35 | QDQLVESGGGLVQAGGSLRLSCAASGSTLFIYARGWYRQAPGKEREFVAGISYSGGSTYYADSVKGRFTISRDNAKNTVYLQMNSLKPEDTAVYYCAAATVYLSWYYWGQGTQVTVSS | high polyreactivity
36 | QDQLVESGGGLVQAGGSLRLSCAASGSTLYAYAMGWYRQAPGKERELVAAISFSTTSTYYADSVKGRFTISRDYEKNTVYLQMNSLKPEDTAVYYCAAEYWYYWEYEYWGLGTQVTVSS | high polyreactivity
37 | QDQLVESGGGLVQAGGSLRLSCAASGYIFLRNAMGWYRQAPGKERELVATISRTGRTNYADSVKGRFTISRDNAKNTVFLHMNSLKPEDTAVYYCAAASVFGRIRLWYDYWGQGTQVTVSS | high polyreactivity
38 | QDQLVESGGGLVQAGGSLRLSCAASGYTFRYAMGWNIQAPGKERELVAGITSSGGSTYYADSVKGRFTISRDNAKNTVYLQMNSLKPEDTAVYYCNADFFVWLYPHYLIFDYWGQGTQVTVSS | low polyreactivity
39 | QDQLVESGGGLVQAGGSLRLSCAASVSTFYVYAMGWYRQAPGKERELVAAITRGGSTYYADSVKGRFTISRDNAKNTVYLQMNSLKPEDTAGYYCAADYGSRWGYDYCGQGTQVTVSS | low polyreactivity
40 | QDQLVESGGGLVQAGGSLRLSCAAYGIIFWDNAMGWYRQAPGKERELVASINYSGGSTYYADSVKGRFTISRDNAKNTVYLQMYSLKPEDTAVYYCAARTVTLDDWDYAYDYWGQGTQVTVSS | low polyreactivity
41 | QDQLVESGGGLVQAGGSLRLSCAPSGFIFDDNAMGWYRQAPGKERELVAAITSGGGSTYYADSVKGRFTISRDNAKNTFYLQMNSLKPEDTAVYYCNKVYGWYSFKWGPTASDYWGQGTQVTVSS | low polyreactivity
42 | QDQLVESGGGLVQAGGSLRLSCAPSGSIFYRNAMGWYRQAPGKERELVAAIRYSGDNTYYADSVKGRFTISRDNSKNTVYLQMNSLKPEDTAVYYCAADFPDYEYWGQGTQVTVSS | high polyreactivity
43 | QDQLVESGGGLVQAGGSLRLSCASSGFTFNGYAMGWYRQAPGKERELVAAINISGGSTYYADSVKGRFTISRDNAKNTVYLQMNSLNPEDTAVYYCAARLWGKRYSYRYGYWGQGTQVTVSS | high polyreactivity
